Results reported in PMC2856799.

Key:
[1] = molecular target: Insulin (Pekar and Frank 1972 preparation); assay: Sedimentation equilibrium; details: pH 7.0; 24.5 °C; ionic strength 0.1; not stated (pH 7.0); scale: log10; cited from earlier work
[2] = molecular target: Insulin (zinc-free) (UniProt P01317); assay: Composition-gradient static light scattering; details: pH 10.0, 25 °C, 0.095 M NaCl, 5.3 mM glycine, 3.2 mM NaOH, scale: log10
Chain of UniProt P01317 (P01317 whole entry): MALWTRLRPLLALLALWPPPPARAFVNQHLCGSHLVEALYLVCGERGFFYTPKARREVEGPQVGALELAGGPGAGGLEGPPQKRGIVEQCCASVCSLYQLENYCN

| Substance | log10(K6a) (stepwise hexamer addition) [1] | log10(K12) (monomer-dimer) [1] | log10(K26) (3 dimers -> hexamer) [1] | log10(Ka) (isodesmic) [1] | log10(Ka) (enhanced isodesmic; monomer addition to dimer and higher oligomers) [2] |
| --- | --- | --- | --- | --- | --- |
| Insulin (Pekar and Frank 1972 preparation) | 3.69 | 5.64 | 8.36 | 4.43 |  |
| Insulin (zinc-free) |  |  |  |  | 3.82 |
